From PMC6349918, “A five-residue motif for the design of domain swapping in proteins” (Nature Communications, 2019)

Target: the molecule itself
Test: SEC; MK-Ctd and its loop variants; Superdex 75 10/300 GL; 20 mM Tris-HCl, 500 mM GdnHCl, pH 8; monomer to dimer

B1: L1MK-Ctd (MK-Ctd with QVVAG engineered into loop1) (domain or fragment)
chain: MVPSRFEDVRVVQVVAGWRVSVKIAETEEGEVVTVKAEFDECREIGEETGIPPREVKAMVEAAARVGGWVDLKEREIKVQEG
stoichiometry N: 2

B2: L1MK-Ctd* (L1MK-Ctd with QVVAG mutated to QVNAG) (domain or fragment)
chain: MVPSRFEDVRVVQVNAGWRVSVKIAETEEGEVVTVKAEFDECREIGEETGIPPREVKAMVEAAARVGGWVDLKEREIKVQEG
stoichiometry N: 2
